Stoichiometry N data for 1 molecule are collected here from article PMC11446229.

This experiment concerns the target T1, CyaY, the frataxin homolog of Escherichia coli (E. coli), P27838.
T1 chain: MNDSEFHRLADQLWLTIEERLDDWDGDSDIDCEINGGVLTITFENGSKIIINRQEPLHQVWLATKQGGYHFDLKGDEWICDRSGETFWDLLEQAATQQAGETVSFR
Description: native MS; CyaY above 35 uM in the titration of SufSE; charge states of CyaY multimers (Fig. S4). The conditions noted are these: remark: other sources report otherwise.

B1: CyaY, the frataxin homolog of Escherichia coli, P27838 1-106 (natural protein)
chain: T1 chain
The molecule B1 gave a stoichiometry N of 2 to 3.

As usually defined, the stoichiometry N is the number of molecules, sites or subunits per partner or assembly.
